“And” between values parts separate entries of the source, which are not always exact repeats. Equal values may be shown once.
Molecular target: Hfq-FLAG (Yersinia pestis Hfq with C-terminal 3 x Flag tag) (Yersinia pestis)
Experiment: native gel or EMSA

Hfq-FLAG (Yersinia pestis Hfq with C-terminal 3 x Flag tag) (natural protein)
stoichiometry N: 3 and 6
